We go through six molecules from patent publication US20200181261A1 (Bayer, published 2020).

Assay [1] has as its target T1, human CEACAM6, extracellular (mature form), R&D Systems 3934-CM (human, UniProt P40199 35-320).
T1 construct: used biotinylated in some assays; also called TPP-1436; Recombinant human CEACAM6
T1 sequence: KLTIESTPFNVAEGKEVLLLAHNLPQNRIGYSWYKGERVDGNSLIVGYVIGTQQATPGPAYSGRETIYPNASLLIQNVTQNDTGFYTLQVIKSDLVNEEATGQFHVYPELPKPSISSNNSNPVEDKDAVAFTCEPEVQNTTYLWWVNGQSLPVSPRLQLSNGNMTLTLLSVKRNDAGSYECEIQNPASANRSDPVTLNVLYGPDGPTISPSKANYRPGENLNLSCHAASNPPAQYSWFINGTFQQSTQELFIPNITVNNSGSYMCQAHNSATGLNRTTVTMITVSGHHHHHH
Put plainly: ELISA, antibody captured, biotinylated antigen titrated. As for the experimental part:
(§1) The binding characteristics of these antibodies were also determined by a binding ELISA (monovalent binding, biotinylated CEACAM proteins): A 1:440 dilution of an anti-human IgG (Sigma, 12136) in Coating buffer (Candor) was used to coat black 384-well Maxisorp plates (Nunc) for 1 hour at 37° C. After one wash with PBS/0.05% Tween-20 the plates were blocked with 100% SmartBlock (Candor) for 1 hour at 37° C. After three washes, 2 μg/ml of the relevant antibodies were added to the plate in PBS/0.05% Tween-20/10% SmartBlock. The plates were incubated for 1 hour at room temperature. After three washes dilution series of the relevant biotinylated CEACAM proteins in PBS/0.05% Tween-20/10% SmartBlock were added and the plates were incubated for one hour at room temperature. After three washes 1 μg/ml of Streptavidin-Peroxidase (Sigma, S5512) in PBS/0.05% Tween-20/10% SmartBlock was added and the plates were incubated for 30 minutes at room temperature. After three washes, the plates were developed with Amplex Red (Life Technologies) and fluorescence was read at an emission wavelength of 590 nm. GraphPad Prism 6.0 software was used to calculate EC₅₀ values using four-parameter non-linear curve fit.

Assay [2] addresses T2, Macaca fascicularis CEACAM6, extracellular (mature form), obtained by Factor Xa cleavage of TPP-2443 (Macaca fascicularis).
T2 construct: used biotinylated in some assays; also called APP-319; Cynomolgus CEACAM6
T2 chain: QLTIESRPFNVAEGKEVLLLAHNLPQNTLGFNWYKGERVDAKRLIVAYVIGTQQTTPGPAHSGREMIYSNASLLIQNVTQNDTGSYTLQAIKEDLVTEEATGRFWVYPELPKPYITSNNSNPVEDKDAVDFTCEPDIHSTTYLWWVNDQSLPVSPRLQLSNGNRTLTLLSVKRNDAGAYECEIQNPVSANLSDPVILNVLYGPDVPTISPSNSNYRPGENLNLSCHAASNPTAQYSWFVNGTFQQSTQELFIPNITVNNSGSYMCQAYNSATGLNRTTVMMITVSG
Described as above. As for the experimental part: as §1

For assay [3], the target named is T3, human CEACAM1, extracellular (mature form), R&D Systems 2244-CM (human, UniProt P13688 35-428).
T3 construct: used biotinylated in some assays; also called TPP-1437; hC1
T3 sequence: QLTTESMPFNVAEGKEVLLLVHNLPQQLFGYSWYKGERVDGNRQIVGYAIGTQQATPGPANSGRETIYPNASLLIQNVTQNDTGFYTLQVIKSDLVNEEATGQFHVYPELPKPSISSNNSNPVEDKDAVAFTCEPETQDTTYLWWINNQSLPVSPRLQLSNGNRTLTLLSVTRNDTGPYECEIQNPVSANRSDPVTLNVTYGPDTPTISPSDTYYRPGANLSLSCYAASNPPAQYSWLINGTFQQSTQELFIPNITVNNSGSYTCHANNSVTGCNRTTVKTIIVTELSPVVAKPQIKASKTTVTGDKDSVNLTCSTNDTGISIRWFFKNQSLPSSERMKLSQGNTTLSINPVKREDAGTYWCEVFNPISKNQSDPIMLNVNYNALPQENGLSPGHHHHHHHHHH
Nature of the assay: ELISA, antibody captured, biotinylated antigen titrated; binding ELISA, biotinylated CEACAM1 titrated up to 2000 ng/ml; ambiguous fit. Background: An ELISA detects its analyte on a solid surface through an enzyme-linked reagent.

Assay [4] has as its target T4, Macaca fascicularis CEACAM6-Domain 1, obtained by Factor Xa cleavage of TPP-2452 (Macaca fascicularis).
T4 construct: also called APP-325; cynoC6-D1
T4 chain: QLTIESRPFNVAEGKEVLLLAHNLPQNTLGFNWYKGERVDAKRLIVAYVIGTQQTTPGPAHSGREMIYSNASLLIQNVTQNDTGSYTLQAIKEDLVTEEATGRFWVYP
Nature of the assay: SPR, antibody captured, antigen as analyte. A general note: In SPR one partner is held on a chip, and binding of the other changes the refractive index at the surface.

B1: TPP-3310 (antibody, human IgG2, kappa)
heavy: QVTLRESGPALVKPTQTLTLTCTFSGFSLSTYGIGVGWIRQPPGKALEWLAHIWWNDNKYYSTSLKTRLTISKDTSKNQVVLTMTNMDPVDTATYYCARISLPYFDYWGQGTTLTVSSASTKGPSVFPLAPCSRSTSESTAALGCLVKDYFPEPVTVSWNSGALTSGVHTFPAVLQSSGLYSLSSVVTVPSSNFGTQTYTCNVDHKPSNTKVDKTVERKCCVECPPCPAPPVAGPSVFLFPPKPKDTLMISRTPEVTCVVVDVSHEDPEVQFNWYVDGVEVHNAKTKPREEQFNSTFRVVSVLTVVHQDWLNGKEYKCKVSNKGLPAPIEKTISKTKGQPREPQVYTLPPSREEMTKNQVSLTCLVKGFYPSDIAVEWESNGQPENNYKTTPPMLDSDGSFFLYSKLTVDKSRWQQGNVFSCSVMHEALHNHYTQKSLSLSPG
light: DIQLTQSPSFLSASVGDRVTITCKASQNVGTAVAWYQQKPGKAPKLLIYSASNRYTGVPSRFSGSGSGTEFTLTISSLQPEDFATYYCQQYSSYPLTFGGGTKVEIKRTVAAPSVFIFPPSDEQLKSGTASVVCLLNNFYPREAKVQWKVDNALQSGNSQESVTEQDSKDSTYSLSSTLTLSKADYEKHKVYACEVTHQGLSSPVTKSFNRGEC
notes: humanized from TPP-2971, human IgG2; also called TPP-2971HU1-hIgG2Kappa
One may read the EC50 as the concentration needed to bring the measured effect to its halfway point. Lower therefore signals a more potent agent. Take B1: the values for the EC50 in assay [1] and in assay [2] were 0.09 nM and 0.07 nM, respectively.

B2: TPP-3714 (antibody, human IgG2, kappa)
heavy: QVTLRESGPALVKPTQTLTLTCTFSGFSLSTYGIGVGWIRQPPGKALEWLAHIWWNDNKYYSTSLKTRLTISKDTSKNQVVLTMTNMDPVDTATYYCARISLPYFDYWGQGTLVTVSSASTKGPSVFPLAPCSRSTSESTAALGCLVKDYFPEPVTVSWNSGALTSGVHTFPAVLQSSGLYSLSSVVTVPSSNFGTQTYTCNVDHKPSNTKVDKTVERKCCVECPPCPAPPVAGPSVFLFPPKPKDTLMISRTPEVTCVVVDVSHEDPEVQFNWYVDGVEVHNAKTKPREEQFNSTFRVVSVLTVVHQDWLNGKEYKCKVSNKGLPAPIEKTISKTKGQPREPQVYTLPPSREEMTKNQVSLTCLVKGFYPSDIAVEWESNGQPENNYKTTPPMLDSDGSFFLYSKLTVDKSRWQQGNVFSCSVMHEALHNHYTQKSLSLSPG
light: DIQLTQSPSFLSASVGDRVTITCKASQNVGTAVAWYQQKPGKAPKLLIYSASNRYTGVPSRFSGSGSGTEFTLTISSLQPEDFATYYCQQYSSYPLTFGGGTKVEIKRTVAAPSVFIFPPSDEQLKSGTASVVCLLNNFYPREAKVQWKVDNALQSGNSQESVTEQDSKDSTYSLSSTLTLSKADYEKHKVYACEVTHQGLSSPVTKSFNRGEC
notes: humanized from TPP-2971, human IgG2; also called TPP-2971HU2-hIgG2Kappa
B2: the EC50 was 0.09 nM in assay [1] and 0.07 nM in assay [2].

B3: TPP-3705 (antibody, human IgG2, kappa, V domains shown)
VH: EVQLVESGGGLVQPGGSLRLSCAASGFTFSLYQMHWVRQAPGKGLEWVSWISFSGGNTGYADSVKGRFTISRDNSKNTLYLQMNSLRAEDTAVYYCARATGYSSPWYLDPWGQGTLVTVSS
VL: DIQMTQSPSSLSASVGDRVTITCQASHEIDNYLNWYQQKPGKAPKLLIYDAYWLKTGVPSRFSGSGSGTDFTLTISSLQPEDIATYYCQGYDDLSVTFGGGTKVDIKR
notes: also called 090E-M007-A09-Mat1-hIgG2-hIgG2Kappa
For the molecule B3, the values for the EC50 in assay [1], in assay [2] and in assay [3] were 0.18 nM, 0.12 nM and over 2 µg/mL, respectively. The “fold better binding than to human CEACAM3 (ratio of EC50 values)” value in assay [1] was about 620 fold.

B4: TPP-3707 (antibody, human IgG2, kappa, V domains shown)
VH: EVQLVESGGGLVQPGGSLRLSCAASGFTFSLYQMHWVRQAPGKGLEWVSWISFSGGNTGYADSVKGRFTISRDNSKNTLYLQMNSLRAEDTAVYYCARATGYSSPWYLDPWGQGTLVTVSS
VL: DIQMTQSPSSLSASVGDRVTITCQASHEIDNYLNWYQQKPGKAPKLLIYDAYWSKTGVPSRFSGSGSGTDFTLTISSLQPEDIATYYCQGYDDLSVTFGGGTKVDIKR
notes: also called 090E-M007-A09-Mat2-hIgG2-hIgG2Kappa
With B4, the EC50 in assay [1] was 0.19 nM; in assay [2], 0.11 nM; in assay [3], over 2 µg/mL. Besides, the “fold better binding than to human CEACAM3 (ratio of EC50 values)” value in assay [1] was about 730 fold.

B5: TPP-2971 (antibody, mouse IgG1, V domains shown)
VH: QVTLKESGPGILQPSQTLSLTCSFSGFSLSTYGIGVGWIRQPSGKDLEWLAHIWWNDNKYYNTALKSRLTISKDTSNNQVFLKIASVDTADTATYYCARISLPYFDYWGQGTTLTVSS
VL: DIVMTQSQKFMSTSVGDRVSITCKASQNVGTAVAWYQQKPGQSPKLLIYSASNRYTGVPDRFTGSGSGTDFTLTISNMQSEDLADYFCQQYSSYPLTFGAGTKLELK
notes: murine hybridoma antibody, mouse IgG1; also called 792.15H12C9
For orientation: Kd means a measure of binding affinity in units of concentration. Higher therefore signals a looser complex. B5 showed a Kd in assay [4] of 30 nM.

B6: TPP-3187 (antibody, mouse IgG1, V domains shown)
VH: QVTLKESGPGILQPSQTLSLTCSFSGFSLTTYGIGVGWIRQPSGKGLEWLAHIWWNDNKYYNTALKSRLTISKDTSNNQVFLKIASVDTADTATYYCARISLPYFDYWGQGTTLTVSS
VL: DIVMTQSQKFMSTSVGDRVSITCKASQNVGTAVAWYQQKPGQSPKLLIYSASNRYTGVPDRFTGSGSGTDFTLTISNMQSEDLADYFCQQYNNYPLTFGAGTKLELK
notes: murine hybridoma antibody, mouse IgG1; also called 792.15C4F4
B6 came in with a Kd in assay [4] of 42 nM.
